Common to all, as to settings: both partners purified
Assay [1] addresses T1, recombinant PCV2 capsid protein (PCV2-Cap) (Porcine circovirus 2, strain of …, UniProt D6R1Z5).
T1 construct: also called monomeric PCV2-Cap
The assay can be described thus: Western blot. On the technique in general: Immunoblotting shows a protein as a band on a membrane.

The target in assay [2] is PCV2-Cap peptide aa 69–83 (Porcine circovirus 2, PCV2b strain SH). Briefly: ELISA; synthetic 15-mer peptides coated (1 µg/well); mAb-1E7 or mAb-3G4 added; detection with goat anti-mouse IgG. In general terms: ELISA stands for enzyme-linked immunosorbent assay.
The target of assay [3] is PCV2-Cap peptide aa 73–87 (Porcine circovirus 2, PCV2b strain SH). Described as above.
The target in assay [4] is PCV2-Cap peptide aa 74–88 (Porcine circovirus 2, PCV2b strain SH). The assay is described as above.
In assay [5] the target is PCV2-Cap peptide aa 75–89 (Porcine circovirus 2, PCV2b strain SH). Described as above.

Here are results for two molecules from publication PMC10878242 (Journal of Virology, 2024).

B1: mAb-3G4 (antibody, V domains shown)
VH: QVTLKESGPGILQPSQTLSLTCSFSGFSLSTSGMVVGWIRQPSGKGLEWLAHIWWDDVKRYNPALKSRLTISKDTSNSQVFLKIASVDTADTATYYCARSPFFAYWGQGTLVTISP
VL: DIQMTQSPSSLSASLGERVSLTCRASQDIGSNLNWLQKRSDGSIKRLIYATSSLDSGVPKRFSGSRSGSDYSLTISSLESEDFVDYYCLQYATSPYTFGGGTKLEIK
Consider B1, for which the binding result in assay [1] and in assay [2] was “binds” each time.

B2: mAb-1E7 (antibody, V domains shown)
VH: QIQLVQSGPELKKPGETVKISCKASGYIFTNYGMNWVKQAPGKGFKWMGWINTYTGEPTYVDDFKGRFAFSLETSASTVYLQINNLKNEDTATYFCARSLENWGQGTTLTVSS
VL: DIVMTQAAFSNPVTLGTSASISCRSSKSLLHSNGITYLYWYLQKPGQSPQLLIYQMSNLASGVPDRFSSSGSGTDFTLRISRVEAEDVGVYYCAQNVELPTFGGGTKLEIK
On to B2, for which the binding result in assay [3], in assay [4] and in assay [5] was “binds” each time.
